This note sets out measurements from publication PMC9468636, “ZAT10 plays dual roles in cadmium uptake and detoxification in Arabidopsis”.

This data set addresses MBP-ZAT10 (Arabidopsis thaliana, UniProt Q96289 1-227). As to the kind of experiment: EMSA; 2 ug protein in 20 uL; EMSA/gel-shift binding 5x buffer (Beyotime; composition not stated), 20 uL, 25 C, 30 min, 12% native PAGE; protein eluted in 20 mM Tris-HCl, 100 mM NaCl, 10 mM. Conditions: protein: recombinant; tags: N-terminal MBP (pMAL-c4X); blunt. Background: A gel shift assay detects complexes by their altered migration in electrophoresis.

MBP-ZAT10, sequence (Q96289 whole entry): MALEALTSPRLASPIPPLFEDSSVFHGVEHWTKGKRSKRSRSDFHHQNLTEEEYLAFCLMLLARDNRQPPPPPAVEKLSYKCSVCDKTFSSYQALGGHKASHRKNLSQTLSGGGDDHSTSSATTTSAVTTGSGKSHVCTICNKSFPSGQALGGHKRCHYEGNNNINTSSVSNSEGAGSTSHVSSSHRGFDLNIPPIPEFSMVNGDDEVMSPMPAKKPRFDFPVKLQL

B1: ZAT10 promoter probe (P) (dsDNA)
DNA 1: ATCGCCACCTTCACTCTTCACACTTTCCTACCACTTGTCACGCAACTT
DNA 2: AAGTTGCGTGACAAGTGGTAGGAAAGTGTGAAGAGTGAAGGTGGCGAT
For B1, the binding result is recorded as “binds”.
